Experimental findings from patent US20250269027A1 are described below.

The assay concerns the target Mesothelin (MSLN) expressed on target cells (human) (UniProt Q13421). The experiment in a line: cell-based or functional assay.

In turn, m912 benchmark MSLN CAR (scFv) yielded an EC50 (functional sensitivity), Jurkat NFAT-luciferase, MSLN molecules/cell on HEK293 cells (molecules/cell) of 80000.
